# Source: US20160297883A1, “G-PROTEIN COUPLED RECEPTOR AGONISTS AND METHODS” (Innovative Targeting Solutions, Inc., priority 2013, published 2016)
# Molecular target: T1, GLP1R (Homo sapiens, UniProt P43220, A316G/L260F)
# T1 construct: host or cells: HuTARG cells (engineered HEK293), subclone L696 / L696.19
# Test: cAMP-responsive CD19 surface reporter assay in HuTARG-L696 GLP1R reporter cell line (FACS)
# Type: cell-based
# Source text: HuTARG™ cells, which are HEK293 cells engineered to be capable of de novo antibody generation, were used to generate the reporter cell line. HuTARG™ cells have been stably transfected with expression cassettes for RAG1 and RAG-2 and Tdt. RAG-1 expression is inducible as the gene has been placed downstream of a Tet inducible promoter. HuTARG™ cells have also been stably transfected with a plasmid containing a LoxP site for subsequent insertion of V(D)J substrates.
# HuTARG™ cells were modified to express the GLP1 receptor as well as express a reporter gene that was activated by cAMP. […]
# Depleted cells were subsequently expanded and depleted an additional time using the same protocol except using a Miltenyi LD magnetic column. […] Single cell clones confirmed to have minimal CD19 expression in the absence of ligand were evaluated for induction of CD19 in the presence of 10 nM Exendin and the L696 subclone was selected. […]
# The peptide-grafted antibody, ITS007-V107, was subsequently cloned and expressed as a single-domain VH-IgG antibody without CH1 or a light chain and it was confirmed that the peptide-grafted heavy chain was functional in this format as well (FIG. 12). […]
# ITS007-V125 was cloned into a secretion vector, expressed and purified. […] The next day, binding and the percentage of cells expressing the surface marker were determined by FACS.
# T1 sequence (P43220 24-463 L260F/A316G): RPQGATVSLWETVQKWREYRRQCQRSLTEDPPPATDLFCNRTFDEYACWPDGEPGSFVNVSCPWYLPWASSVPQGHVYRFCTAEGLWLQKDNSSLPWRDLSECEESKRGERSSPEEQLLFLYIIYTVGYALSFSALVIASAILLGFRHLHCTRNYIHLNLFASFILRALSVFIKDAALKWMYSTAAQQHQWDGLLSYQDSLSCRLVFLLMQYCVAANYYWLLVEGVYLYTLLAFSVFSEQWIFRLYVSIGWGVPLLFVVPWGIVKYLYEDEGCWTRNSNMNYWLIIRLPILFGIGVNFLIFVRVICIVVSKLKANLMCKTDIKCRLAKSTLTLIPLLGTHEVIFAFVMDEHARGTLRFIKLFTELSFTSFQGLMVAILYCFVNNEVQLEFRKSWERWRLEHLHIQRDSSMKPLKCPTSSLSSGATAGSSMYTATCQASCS
substance,measurement,setting,value
Exendin-4 [reference compound],induction of CD19 expression,"10 nM, 24 hours, L696 cell line",CD19 expression is specifically induced
same,percentage of cells showing CD19 expression,"50 nM, 48 hours incubation with reporter line",approximately 8%
